Where “and” joins values, the source holds several entries; their conditions need not be identical. Identical values can stand only once.
Tests used:
PC-3 = assay: MTT Cell Proliferation Assay, PC-3; type: cell-based, human; conditions: 120 hours of exposure
Text: (§1) This Example describes characterization of the cytotoxic activity of herein described anti-BKB2R monoclonal antibodies against a panel of cancer cell lines. BxPC-3 is a human adenocarcinoma cell line originally isolated from the pancreas (pancreatic cancer) (ATCC # CRL-1687; Tan et al., Cancer Invest. 4: 15-23, 1986. PubMed: 3754176). MV-4-11 is a human biphenotypic B myelomonocytic leukemia (mixed-lineage leukemia, MLL-AF4) cell line originally isolated from the peripheral blood (ATCC # CRL-959; Lange et al., Blood 70: 192-199, 1987. PubMed: 3496132). Hep G2 is a human hepatocellular carcinoma cell line isolated from the liver (liver cancer) (ATCC # HB-8065; Aden et al., Nature 282: 615-616, 1979. PubMed: 233137). RS4;11 is a human acute lymphoblastic leukemia (mixed-lineage leukemia, MLL-AF4) cell line isolated from the bone marrow (ATTC # CRL-1873) Stong et al., Blood 65: 21-31, 1985. PubMed: 3917311). HT-29 is a human colorectal adenocarcinoma (ATTC # HTB-38) cell line isolated from the colon (colon cancer). Fogh et al., J. Natl. Cancer Inst. 58: 209-214, 1977. PubMed: 833871). NUGC-4 is a human stomach carcinoma isolated from the stomach paragastiric lymph node (JCRB # JCRB0834; Akiyama et al., Jpn. J. Surg., 18: 438-446, 1988). […]
(§2) The anti-proliferative activity of test compounds against the indicated cell lines was evaluated in vitro using the ATCC's MTT Cell Proliferation Assay (Catalog No. 30-1010K). After the 120 hour incubation with drug (e.g., anti-BKB2R mAb or cisplatin), cell proliferation was measured by addition of MTT reagent to each well and incubation for an additional 4 hrs. […] Optical absorbance (570 nm) of the test wells was measured and then quantitated relative to control wells that received no drug. Results were expressed as percent inhibition versus compound concentration and graphed, as shown in FIGS. 19-25, for cell lines BxPC-3, MV-4;11, HepG2, RS-4;11, HT-29, NUGC-4, and PC-3, respectively.

Sprague Dawley Rats = assay: Hyperinsulinemic-euglycemic clamp in Sprague Dawley rats; type: in vivo, rat
Procedure: The hyperinsulinemic euglycemic clamp has been considered to as the standard in vivo technique for measuring insulin sensitivity effects of type 2 diabetes drugs. In this procedure, insulin is administered to a test animal to raise the insulin concentration, while glucose is infused to maintain euglycemia. The glucose infusion rate (GIR) needed to maintain euglycemia is a reflection of insulin action or improved insulin sensitivity. The bradykinin receptor agonist (anti-BKB2R) monoclonal antibody clone 5F12G1 was tested in a euglycemic clamp study to measure its ability to improve insulin sensitivity.
Healthy young male Sprague Dawley Rats weighing 275-300 g were used for the study (Harlan Laboratory, Indianapolis, USA). The rats were maintained in a controlled environment at a temperature of 70-72° F., humidity 30-70%, with a photo cycle of 12 hours of light and 12 hours of dark. They were provided with TEKLAD™ 2018-Global 18% diet and drinking water ad libitum. After seven days of acclimatization, rats were grouped in groups of four.
Animals were anesthetized with an intraperitoneal injection of ketamine-plus-xylazine cocktail and the right jugular vein and left carotid artery were catheterized externally through an incision in the skin flap. The catheterized animals were allowed to recover for five days. After five days of recovery, animals were fasted for six hours and a 120-minute hyperinsulimic-euglycemic clamp was applied with continuous infusion of human insulin (Humulin, Eli Lilly, Indianapolis, Ind.) at a constant rate of 4mU/kg/minute. […] Both insulin and glucose were infused through catheterized right jugular vein and blood glucose levels were monitored from the catheterized carotid artery. Arterial blood glucose levels and plasma insulin levels were measured prior to infusion at t=−120, −90, −30, −15 and 0 minutes and then at every 10 minutes for 120 minutes (t=120), using a Glucose meter (Accu-Chek™ Roche Diagnostics, Indianapolis, Ind.) and a rat insulin ELISA kit. […]

Hep G2 = assay: MTT Cell Proliferation Assay, Hep G2; type: cell-based, human; conditions: 120 hours of exposure
Text: as §1, §2

MV-4-11 = assay: MTT Cell Proliferation Assay, MV-4-11; type: cell-based, human; conditions: 120 hours of exposure
Text: as §1, §2

ZDF fa/fa rats = assay: 21-day ZDF fa/fa study: hyperinsulinemic-euglycemic clamp in sub-groups; type: in vivo, rat; conditions: after 21 days
Procedure: Animals. Male ZDF fa/fa rats were obtained from CRL (Kingston, N.Y.). Upon arrival, rats were seven weeks of age. The rats were housed individually per cage in a room with a photo cycle of 12 hours of light and 12 hours of dark and an ambient temperature of 70-72° F. and fed on regular rodent diet and water ad libitum. At the age of eleven weeks, rats were divided into six groups (Table 5) of eight rats per group based on fasting blood glucose levels. A sub-group of four rats per group was maintained in parallel to the main groups and was dosed similarly for twenty-one days for a hyperinsulinemic-euglycemic clamp study.
The test compounds 5F12G1 and MG2b-57 were administered subcutaneously once every three days.

B1: 5F12G1: murine monoclonal anti-BKB2R antibody (IgG2b,κ), VH comprising SEQ ID NO:1, VL comprising SEQ ID NO:2 (antibody, listed as Mus musculus, V domains shown)
VH: EVKLEESGGGLVQPGGSMKLSCVVSGFTFSDYWMSWVRHSPEMGLEWVAEIRLKSDNYATHYAESVKGRFTISRDDSKSRLYLQINSLRGEDTGIYYCTRDYYAMEYWGQGTSVTVSS
VL: DVVMTQTPLSLPVSLGDQASISCRSSQTIVHSNGKTYLEWYLQKPGQSPKLLIYKVSNRFSGVPDRFSGSGSGTEFTLKISRVETEDLGVYYCFQASHVPYTFGGGTKLEIK
EC 50 Values (ng/ml) PC-3 (PC-3): 4200 ng/mL
increase in total glucose infusion rate AUC compared to vehicle (Sprague Dawley Rats; 0.5 mg/kg i.m. at t=−30 min, 120-minute clamp): 179%
peak increase of glucose infusion rate compared to vehicle (Sprague Dawley Rats; 0.5 mg/kg i.m. at t=−30 min, t=60 min): 291%
Calculated Glucose Infusion Rate Area Under the Curve (Sprague Dawley Rats; 0.5 mg/kg i.m., individual animals # 1-4): 4560 mg/kg and 4317 mg/kg and 3243 mg/kg and 2685 mg/kg
EC 50 Values (ng/ml) Hep G2 (Hep G2): 21000 ng/mL
EC 50 Values (ng/ml) MV-4-11 (MV-4-11): 35000 ng/mL
AUC-GIR (glucose infusion rate) in the clamp (ZDF fa/fa rats; 0.04 mg/kg s.c. every 3 days): significantly higher AUC-GIR
AUC-GIR (glucose infusion rate) in the clamp (ZDF fa/fa rats; 0.2 mg/kg s.c. every 3 days): significantly higher AUC-GIR
